Article PMC5331220

How the values were obtained:
Test in all cases: ITC; GppNHp-Rab35 (480 μM) injected in 2 μl aliquots into the C-terminal MICAL1 domain (60 μM) in the cell; 10 °C; 50 mM Tris pH 8, 150 mM NaCl, 2 mM MgCl2, 2 mM TCEP, 5% glycerol; one-site model
[1] = target: MICAL1^918–1067 mutant S1 (human) (UniProt Q8TDZ2)
[2] = target: MICAL1^879–1067 (tag cleaved, for ITC) (human) (UniProt Q8TDZ2)
[3] = target: MICAL1^918–1067 WT C-terminal domain (tag cleaved) (human) (UniProt Q8TDZ2)
Chain of MICAL1^918–1067 WT C-terminal domain (tag cleaved) (human) (Q8TDZ2 918-1067): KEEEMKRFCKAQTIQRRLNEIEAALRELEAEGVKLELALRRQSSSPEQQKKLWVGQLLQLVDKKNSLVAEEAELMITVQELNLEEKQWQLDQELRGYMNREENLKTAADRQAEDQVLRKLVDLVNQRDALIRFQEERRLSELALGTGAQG

Chain of MICAL1^879–1067 (tag cleaved, for ITC) (human) (Q8TDZ2 879-1067): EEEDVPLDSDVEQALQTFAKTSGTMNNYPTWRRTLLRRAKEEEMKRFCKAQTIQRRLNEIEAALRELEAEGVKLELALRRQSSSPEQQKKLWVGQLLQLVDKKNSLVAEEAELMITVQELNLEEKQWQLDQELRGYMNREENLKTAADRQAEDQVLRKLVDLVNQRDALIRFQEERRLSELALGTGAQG

Rab35 (recombinant, for ITC and competition; Rab35^1-199 taken as the likeliest construct) (from UniProt Q15286 1-199) (natural protein)
stoichiometry N [1]: 1 | Kd [2]: 13 µM | Kd [3]: 6.4 µM | stoichiometry N [3]: 1
